Data on 1 molecule can be found in US20250277030A1, “ANTI-NAPI2B ANTIBODIES AND METHODS OF USE” (Zymeworks BC Inc., priority 2022, published 2025).

The assay has as its target Insulin (Sigma-Aldrich, 19278) (UniProt P01308). Briefly: non-specific binding ELISA, insulin coated at 5 µg/mL, antibody at 100 nM.

Insulin (Sigma-Aldrich, 19278), sequence (P01308 25-54 limits assumed, chain 1 of 2): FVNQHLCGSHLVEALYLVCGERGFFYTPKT
Insulin (Sigma-Aldrich, 19278), sequence (P01308 90-110 limits assumed, chain 2 of 2): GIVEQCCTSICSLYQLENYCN

B1: v29452 humanized anti-NaPi2b antibody (H1L3) (antibody, human IgG1, kappa, V domains shown)
VH: QVQLVQSGAEVKKPGASVKVSCKASGFTFTSYNVHWVRQAPGQGLEWMGAISPGNGDLSYAQKFQGRVTMTRDTSTSTVYMELSSLRSEDTAVYYCARGRTGMGAVDYWGQGTLVTVSS
VL: DVQMTQSPSSLSASVGDRVTITCRASQDVYSYLNWYQQKPGKAVKLLIYYTSRLQSGVPSRFSGSGSGTDYTLTISSLQPEDIATYYCQQYNIFPWTFGQGTKLEIKR
B1: the NS-ELISA binding score (ratio of signal between antibody-treated and untreated) was 1.03.
